The target of assay [1] is recombinant N-type (Cav2.2) VGCC α1B-b/α2δ1/β3 expressed in Xenopus oocytes (rat; rabbit) (UniProt Q02294). As to the kind of experiment: cell-based or functional assay.
Assay [2] has as its target recombinant N-type (Cav2.2) VGCC α1B-b/α2δ1/β3 expressed in Xenopus oocytes (rat; rabbit), Q02294. Description: cell-based or functional assay.

Sequence of recombinant N-type (Cav2.2) VGCC α1B-b/α2δ1/β3 expressed in Xenopus oocytes (rat; rabbit) (P13806 27-1106, stated change not applied, chain 2 of 2): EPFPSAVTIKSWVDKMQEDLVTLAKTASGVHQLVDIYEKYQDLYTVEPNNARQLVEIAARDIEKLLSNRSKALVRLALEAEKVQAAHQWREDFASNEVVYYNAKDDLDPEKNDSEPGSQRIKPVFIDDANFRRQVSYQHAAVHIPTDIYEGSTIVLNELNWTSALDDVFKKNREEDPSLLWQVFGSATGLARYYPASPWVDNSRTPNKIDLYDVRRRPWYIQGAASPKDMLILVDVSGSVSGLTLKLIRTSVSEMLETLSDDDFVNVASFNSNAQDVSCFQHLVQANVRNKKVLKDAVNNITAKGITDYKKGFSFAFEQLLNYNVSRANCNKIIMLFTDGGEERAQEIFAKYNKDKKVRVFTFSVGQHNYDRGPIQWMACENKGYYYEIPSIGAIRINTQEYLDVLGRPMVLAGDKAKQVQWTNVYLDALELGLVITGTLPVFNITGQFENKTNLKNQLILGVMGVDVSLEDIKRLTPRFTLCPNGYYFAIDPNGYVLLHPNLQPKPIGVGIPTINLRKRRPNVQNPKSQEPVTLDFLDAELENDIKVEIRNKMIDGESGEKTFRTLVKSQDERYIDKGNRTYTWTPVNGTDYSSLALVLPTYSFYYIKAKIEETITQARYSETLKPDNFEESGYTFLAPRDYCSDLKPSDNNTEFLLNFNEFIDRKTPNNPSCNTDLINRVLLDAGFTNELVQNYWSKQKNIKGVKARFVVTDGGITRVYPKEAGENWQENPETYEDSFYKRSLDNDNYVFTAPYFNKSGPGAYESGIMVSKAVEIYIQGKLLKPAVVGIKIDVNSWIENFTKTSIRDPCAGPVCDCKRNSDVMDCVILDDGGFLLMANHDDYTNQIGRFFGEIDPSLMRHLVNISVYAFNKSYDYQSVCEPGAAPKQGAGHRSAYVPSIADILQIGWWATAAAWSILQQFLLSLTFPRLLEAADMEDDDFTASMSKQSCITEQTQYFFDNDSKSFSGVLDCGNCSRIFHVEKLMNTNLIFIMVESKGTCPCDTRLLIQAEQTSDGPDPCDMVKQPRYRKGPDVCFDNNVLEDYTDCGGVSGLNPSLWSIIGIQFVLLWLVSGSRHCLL
Sequence of recombinant N-type (Cav2.2) VGCC α1B-b/α2δ1/β3 expressed in Xenopus oocytes (rat; rabbit) (P54287 whole entry, stated change not applied, chain 3 of 2, further chain): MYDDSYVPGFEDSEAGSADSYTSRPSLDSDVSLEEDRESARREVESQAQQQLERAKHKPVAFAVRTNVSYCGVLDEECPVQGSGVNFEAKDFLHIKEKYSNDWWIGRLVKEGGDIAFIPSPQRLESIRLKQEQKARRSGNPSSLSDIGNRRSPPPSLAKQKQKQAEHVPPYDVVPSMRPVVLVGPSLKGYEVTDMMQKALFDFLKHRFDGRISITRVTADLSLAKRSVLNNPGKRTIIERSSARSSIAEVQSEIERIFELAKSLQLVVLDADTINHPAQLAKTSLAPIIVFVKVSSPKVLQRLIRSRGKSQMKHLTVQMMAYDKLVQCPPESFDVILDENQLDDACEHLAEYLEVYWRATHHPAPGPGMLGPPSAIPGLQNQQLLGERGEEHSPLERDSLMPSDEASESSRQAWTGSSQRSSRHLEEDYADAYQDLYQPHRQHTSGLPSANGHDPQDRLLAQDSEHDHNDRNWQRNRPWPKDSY
Sequence of recombinant N-type (Cav2.2) VGCC α1B-b/α2δ1/β3 expressed in Xenopus oocytes (rat; rabbit), Q02294 (P13806 27-1106, stated change not applied, chain 2 of 2): as the sequence (P13806 27-1106, stated change not applied, chain 2 of 2) above
Sequence of recombinant N-type (Cav2.2) VGCC α1B-b/α2δ1/β3 expressed in Xenopus oocytes (rat; rabbit), Q02294 (P54287 whole entry, stated change not applied, chain 3 of 2, further chain): as the sequence (P54287 whole entry, stated change not applied, chain 3 of 2, further chain) above

In the case of ω-conotoxin CVIE (peptide), in assay [1], the IC50 of inhibition of normalized peak IBa, Xenopus oocytes amounted to 2.6 nM; the time constant of block (τon) at HP -80 mV turned out to be 31.5 s; the time constant of block (τon) at HP -125 mV turned out to be 38.5 s.

Regarding “ω-conotoxin CVIB (from UniProt P58918 1-25) (peptide)”, the IC50 of inhibition of normalized peak IBa, Xenopus oocytes in assay [1] turned out to be 12 nM.

As for CKGKGASCRRTSYDCCTGSCRSGRC (modifications not checked) [ω-conotoxin CVIF], in assay [2], the IC50 of inhibition of normalized peak IBa, Xenopus oocytes was found to be 19.9 nM.
